B1: 14-3-3 protein sigma (Homo sapiens), P31947 (parent)
chain: MERASLIQKAKLAEQAERYEDMAAFMKGAVEKGEELSCEERNLLSVAYKNVVGGQRAAWRVLSSIEQKSNEEGSEEKGPEVREYREKVETELQGVCDTVLGLLDSHLIKEAGDAESRVFYLKMKGDYYRYLAEVATGDDKKRIIDSARSAYQEAMDISKKEMPPTNPIRLGLALNFSVFHYEIANSPEEAISLAKTTFDEAMADLHTLSEDSYKDSTLIMQLLRDNLTLWTADNAGEEGGEAPQEPQS

Variants of: B1
Details: with trim9_human TRIM9, Q9C026

Row | effect of a mutation on the interaction | Variant
1 | decreasing interaction strength | MERASLIQKAKLAEQAERYEDMAAFMKGAVEKGEELSCEERNLLSVAYENVVGGQEAAWRVLSSIEQKSNEEGSEEKGPEVREYREKVETELQGVCDTVLGLLDSHLIKEAGDAESRVFYLKMKGDYYRYLAEVATGDDKKRIIDSARSAYQEAMDISKKEMPPTNPIRLGLALNFSDFHYEIANSPEEAISLAKTTFDEAMADLHTLSEDSYKDSTLIMQLLRDNLTLWTADNAGEEGGEAPQEPQS [K49E;R56E;V178D]

Variants of: B1
Details: with kctd8_human KCTD8, Q6ZWB6

Row | effect of a mutation on the interaction | Variant
2 | decreasing interaction strength | MERASLIQKAKLAEQAERYEDMAAFMKGAVEKGEELSCEERNLLSVAYENVVGGQEAAWRVLSSIEQKSNEEGSEEKGPEVREYREKVETELQGVCDTVLGLLDSHLIKEAGDAESRVFYLKMKGDYYRYLAEVATGDDKKRIIDSARSAYQEAMDISKKEMPPTNPIRLGLALNFSDFHYEIANSPEEAISLAKTTFDEAMADLHTLSEDSYKDSTLIMQLLRDNLTLWTADNAGEEGGEAPQEPQS [K49E;R56E;V178D]

Variants of: B1
Details: with nedd4_human NEDD4, P46934
Sequence of nedd4_human NEDD4, P46934 (P46934 whole entry): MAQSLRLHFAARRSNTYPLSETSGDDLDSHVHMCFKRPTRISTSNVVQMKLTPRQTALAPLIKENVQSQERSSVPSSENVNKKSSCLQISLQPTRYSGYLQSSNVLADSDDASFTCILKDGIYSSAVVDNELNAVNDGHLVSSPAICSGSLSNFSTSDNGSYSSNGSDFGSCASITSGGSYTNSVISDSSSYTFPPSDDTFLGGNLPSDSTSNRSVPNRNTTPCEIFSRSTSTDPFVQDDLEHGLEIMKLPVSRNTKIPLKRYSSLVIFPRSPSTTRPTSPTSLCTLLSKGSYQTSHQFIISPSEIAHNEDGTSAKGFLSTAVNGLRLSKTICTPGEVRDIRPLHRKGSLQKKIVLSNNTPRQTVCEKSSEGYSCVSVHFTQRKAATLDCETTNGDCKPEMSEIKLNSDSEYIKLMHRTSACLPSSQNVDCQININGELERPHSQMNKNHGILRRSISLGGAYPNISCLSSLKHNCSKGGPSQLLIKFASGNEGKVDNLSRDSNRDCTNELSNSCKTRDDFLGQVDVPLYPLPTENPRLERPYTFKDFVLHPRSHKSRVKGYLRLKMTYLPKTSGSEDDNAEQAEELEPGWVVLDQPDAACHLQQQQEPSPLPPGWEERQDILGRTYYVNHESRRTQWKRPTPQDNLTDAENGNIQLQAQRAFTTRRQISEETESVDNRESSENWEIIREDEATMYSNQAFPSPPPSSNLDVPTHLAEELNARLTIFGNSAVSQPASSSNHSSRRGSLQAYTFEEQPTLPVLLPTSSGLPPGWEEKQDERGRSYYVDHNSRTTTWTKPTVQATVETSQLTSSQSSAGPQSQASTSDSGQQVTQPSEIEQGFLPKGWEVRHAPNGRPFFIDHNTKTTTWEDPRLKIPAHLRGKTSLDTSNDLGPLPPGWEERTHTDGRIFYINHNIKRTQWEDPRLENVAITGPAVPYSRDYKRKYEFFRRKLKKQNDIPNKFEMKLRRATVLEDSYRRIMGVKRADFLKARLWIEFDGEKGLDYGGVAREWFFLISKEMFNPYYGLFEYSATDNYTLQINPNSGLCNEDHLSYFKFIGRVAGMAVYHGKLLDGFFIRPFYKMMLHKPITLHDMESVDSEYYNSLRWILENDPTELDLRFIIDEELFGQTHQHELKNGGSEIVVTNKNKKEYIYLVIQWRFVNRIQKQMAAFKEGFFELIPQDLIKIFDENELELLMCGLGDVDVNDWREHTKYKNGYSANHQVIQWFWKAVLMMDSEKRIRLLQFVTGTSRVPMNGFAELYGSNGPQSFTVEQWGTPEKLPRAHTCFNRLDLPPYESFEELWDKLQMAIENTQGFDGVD

Row | effect of a mutation on the interaction | Variant
3 | decreasing interaction strength | MERASLIQKAKLAEQAERYEDMAAFMKGAVEKGEELSCEERNLLSVAYENVVGGQEAAWRVLSSIEQKSNEEGSEEKGPEVREYREKVETELQGVCDTVLGLLDSHLIKEAGDAESRVFYLKMKGDYYRYLAEVATGDDKKRIIDSARSAYQEAMDISKKEMPPTNPIRLGLALNFSDFHYEIANSPEEAISLAKTTFDEAMADLHTLSEDSYKDSTLIMQLLRDNLTLWTADNAGEEGGEAPQEPQS [K49E;R56E;V178D]

Variants of: B1
Details: with dtl_human DTL

Row | effect of a mutation on the interaction | Variant
4 | decreasing interaction strength | MERASLIQKAKLAEQAERYEDMAAFMKGAVEKGEELSCEERNLLSVAYENVVGGQEAAWRVLSSIEQKSNEEGSEEKGPEVREYREKVETELQGVCDTVLGLLDSHLIKEAGDAESRVFYLKMKGDYYRYLAEVATGDDKKRIIDSARSAYQEAMDISKKEMPPTNPIRLGLALNFSDFHYEIANSPEEAISLAKTTFDEAMADLHTLSEDSYKDSTLIMQLLRDNLTLWTADNAGEEGGEAPQEPQS [K49E;R56E;V178D]

Variants of: B1
Details: with cbl_human CBL

Row | effect of a mutation on the interaction | Variant
5 | decreasing interaction strength | MERASLIQKAKLAEQAERYEDMAAFMKGAVEKGEELSCEERNLLSVAYENVVGGQEAAWRVLSSIEQKSNEEGSEEKGPEVREYREKVETELQGVCDTVLGLLDSHLIKEAGDAESRVFYLKMKGDYYRYLAEVATGDDKKRIIDSARSAYQEAMDISKKEMPPTNPIRLGLALNFSDFHYEIANSPEEAISLAKTTFDEAMADLHTLSEDSYKDSTLIMQLLRDNLTLWTADNAGEEGGEAPQEPQS [K49E;R56E;V178D]

Variants of: B1
Details: with kcna7_human KCNA7, Q96RP8
Sequence of kcna7_human KCNA7, Q96RP8 (Q96RP8 whole entry): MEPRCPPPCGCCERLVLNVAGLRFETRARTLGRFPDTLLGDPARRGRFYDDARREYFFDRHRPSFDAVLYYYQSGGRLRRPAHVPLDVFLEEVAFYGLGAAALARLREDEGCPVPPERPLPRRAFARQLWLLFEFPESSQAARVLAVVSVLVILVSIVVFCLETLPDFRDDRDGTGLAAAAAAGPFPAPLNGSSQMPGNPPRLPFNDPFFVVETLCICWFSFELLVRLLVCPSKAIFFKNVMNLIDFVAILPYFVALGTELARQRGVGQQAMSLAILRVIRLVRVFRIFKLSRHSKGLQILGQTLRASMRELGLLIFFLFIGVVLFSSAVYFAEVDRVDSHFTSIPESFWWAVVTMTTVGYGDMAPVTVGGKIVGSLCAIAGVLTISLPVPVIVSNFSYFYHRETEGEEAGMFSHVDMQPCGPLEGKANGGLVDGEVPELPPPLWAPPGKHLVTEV

Row | effect of a mutation on the interaction | Variant
6 | decreasing interaction strength | MERASLIQKAKLAEQAERYEDMAAFMKGAVEKGEELSCEERNLLSVAYENVVGGQEAAWRVLSSIEQKSNEEGSEEKGPEVREYREKVETELQGVCDTVLGLLDSHLIKEAGDAESRVFYLKMKGDYYRYLAEVATGDDKKRIIDSARSAYQEAMDISKKEMPPTNPIRLGLALNFSDFHYEIANSPEEAISLAKTTFDEAMADLHTLSEDSYKDSTLIMQLLRDNLTLWTADNAGEEGGEAPQEPQS [K49E;R56E;V178D]

Variants of: B1
Details: with shkb1_human SHKBP1, Q8TBC3
Sequence of shkb1_human SHKBP1, Q8TBC3 (Q8TBC3 whole entry): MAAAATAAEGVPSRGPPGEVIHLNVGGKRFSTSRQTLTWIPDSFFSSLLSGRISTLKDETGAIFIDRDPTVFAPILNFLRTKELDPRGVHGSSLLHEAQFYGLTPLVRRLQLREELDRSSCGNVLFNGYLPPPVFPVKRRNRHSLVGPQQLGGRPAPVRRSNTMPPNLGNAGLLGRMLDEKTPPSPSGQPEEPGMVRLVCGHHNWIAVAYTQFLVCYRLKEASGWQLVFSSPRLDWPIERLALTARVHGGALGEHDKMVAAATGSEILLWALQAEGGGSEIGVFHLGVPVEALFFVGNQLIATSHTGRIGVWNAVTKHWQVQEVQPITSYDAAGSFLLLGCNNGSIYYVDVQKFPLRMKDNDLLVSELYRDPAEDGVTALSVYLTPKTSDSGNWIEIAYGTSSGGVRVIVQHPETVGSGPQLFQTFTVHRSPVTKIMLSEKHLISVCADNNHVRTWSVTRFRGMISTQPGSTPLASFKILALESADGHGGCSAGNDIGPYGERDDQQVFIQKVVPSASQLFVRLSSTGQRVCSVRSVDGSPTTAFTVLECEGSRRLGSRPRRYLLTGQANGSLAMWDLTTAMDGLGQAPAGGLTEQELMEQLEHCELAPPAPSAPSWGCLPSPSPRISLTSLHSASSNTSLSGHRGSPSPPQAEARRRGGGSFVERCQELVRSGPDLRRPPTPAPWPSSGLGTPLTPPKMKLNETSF

Row | effect of a mutation on the interaction | Variant
7 | decreasing interaction strength | MERASLIQKAKLAEQAERYEDMAAFMKGAVEKGEELSCEERNLLSVAYENVVGGQEAAWRVLSSIEQKSNEEGSEEKGPEVREYREKVETELQGVCDTVLGLLDSHLIKEAGDAESRVFYLKMKGDYYRYLAEVATGDDKKRIIDSARSAYQEAMDISKKEMPPTNPIRLGLALNFSDFHYEIANSPEEAISLAKTTFDEAMADLHTLSEDSYKDSTLIMQLLRDNLTLWTADNAGEEGGEAPQEPQS [K49E;R56E;V178D]

Variants of: B1
Details: with abtb2_human ABTB2, Q8N961
Sequence of abtb2_human ABTB2, Q8N961 (Q8N961 whole entry): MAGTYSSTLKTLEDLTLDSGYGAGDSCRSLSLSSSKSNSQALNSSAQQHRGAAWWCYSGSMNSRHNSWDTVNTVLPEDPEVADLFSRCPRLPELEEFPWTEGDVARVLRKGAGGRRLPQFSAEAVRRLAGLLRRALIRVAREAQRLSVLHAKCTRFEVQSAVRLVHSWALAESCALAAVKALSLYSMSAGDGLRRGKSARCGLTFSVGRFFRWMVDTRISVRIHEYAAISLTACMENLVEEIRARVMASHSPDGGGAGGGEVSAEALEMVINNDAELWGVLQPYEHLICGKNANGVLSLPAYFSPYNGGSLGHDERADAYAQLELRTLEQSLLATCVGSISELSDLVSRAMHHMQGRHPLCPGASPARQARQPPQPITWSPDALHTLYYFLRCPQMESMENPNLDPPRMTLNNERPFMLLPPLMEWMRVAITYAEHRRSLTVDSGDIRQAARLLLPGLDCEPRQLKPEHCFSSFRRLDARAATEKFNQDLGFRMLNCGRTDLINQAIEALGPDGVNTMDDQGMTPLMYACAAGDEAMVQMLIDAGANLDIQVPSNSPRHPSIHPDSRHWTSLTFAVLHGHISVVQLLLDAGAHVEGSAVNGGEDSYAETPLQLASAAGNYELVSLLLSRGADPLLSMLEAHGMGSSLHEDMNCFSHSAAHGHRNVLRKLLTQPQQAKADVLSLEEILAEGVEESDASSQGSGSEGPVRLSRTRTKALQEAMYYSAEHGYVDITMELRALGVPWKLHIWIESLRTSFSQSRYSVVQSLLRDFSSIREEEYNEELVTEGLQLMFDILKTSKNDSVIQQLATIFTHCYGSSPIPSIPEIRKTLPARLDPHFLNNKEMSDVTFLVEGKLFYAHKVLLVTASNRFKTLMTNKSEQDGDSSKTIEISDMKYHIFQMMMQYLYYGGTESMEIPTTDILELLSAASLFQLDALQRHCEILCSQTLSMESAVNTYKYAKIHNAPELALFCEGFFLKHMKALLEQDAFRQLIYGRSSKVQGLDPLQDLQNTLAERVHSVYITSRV

Row | effect of a mutation on the interaction | Variant
8 | decreasing interaction strength | MERASLIQKAKLAEQAERYEDMAAFMKGAVEKGEELSCEERNLLSVAYENVVGGQEAAWRVLSSIEQKSNEEGSEEKGPEVREYREKVETELQGVCDTVLGLLDSHLIKEAGDAESRVFYLKMKGDYYRYLAEVATGDDKKRIIDSARSAYQEAMDISKKEMPPTNPIRLGLALNFSDFHYEIANSPEEAISLAKTTFDEAMADLHTLSEDSYKDSTLIMQLLRDNLTLWTADNAGEEGGEAPQEPQS [K49E;R56E;V178D]

Variants of: B1
Details: with ned4l_human NEDD4L

Row | effect of a mutation on the interaction | Variant
9 | decreasing interaction strength | MERASLIQKAKLAEQAERYEDMAAFMKGAVEKGEELSCEERNLLSVAYENVVGGQEAAWRVLSSIEQKSNEEGSEEKGPEVREYREKVETELQGVCDTVLGLLDSHLIKEAGDAESRVFYLKMKGDYYRYLAEVATGDDKKRIIDSARSAYQEAMDISKKEMPPTNPIRLGLALNFSDFHYEIANSPEEAISLAKTTFDEAMADLHTLSEDSYKDSTLIMQLLRDNLTLWTADNAGEEGGEAPQEPQS [K49E;R56E;V178D]

Variants of: B1
Details: with sh3r1_human SH3RF1, Q7Z6J0
Sequence of sh3r1_human SH3RF1, Q7Z6J0 (Q7Z6J0 whole entry): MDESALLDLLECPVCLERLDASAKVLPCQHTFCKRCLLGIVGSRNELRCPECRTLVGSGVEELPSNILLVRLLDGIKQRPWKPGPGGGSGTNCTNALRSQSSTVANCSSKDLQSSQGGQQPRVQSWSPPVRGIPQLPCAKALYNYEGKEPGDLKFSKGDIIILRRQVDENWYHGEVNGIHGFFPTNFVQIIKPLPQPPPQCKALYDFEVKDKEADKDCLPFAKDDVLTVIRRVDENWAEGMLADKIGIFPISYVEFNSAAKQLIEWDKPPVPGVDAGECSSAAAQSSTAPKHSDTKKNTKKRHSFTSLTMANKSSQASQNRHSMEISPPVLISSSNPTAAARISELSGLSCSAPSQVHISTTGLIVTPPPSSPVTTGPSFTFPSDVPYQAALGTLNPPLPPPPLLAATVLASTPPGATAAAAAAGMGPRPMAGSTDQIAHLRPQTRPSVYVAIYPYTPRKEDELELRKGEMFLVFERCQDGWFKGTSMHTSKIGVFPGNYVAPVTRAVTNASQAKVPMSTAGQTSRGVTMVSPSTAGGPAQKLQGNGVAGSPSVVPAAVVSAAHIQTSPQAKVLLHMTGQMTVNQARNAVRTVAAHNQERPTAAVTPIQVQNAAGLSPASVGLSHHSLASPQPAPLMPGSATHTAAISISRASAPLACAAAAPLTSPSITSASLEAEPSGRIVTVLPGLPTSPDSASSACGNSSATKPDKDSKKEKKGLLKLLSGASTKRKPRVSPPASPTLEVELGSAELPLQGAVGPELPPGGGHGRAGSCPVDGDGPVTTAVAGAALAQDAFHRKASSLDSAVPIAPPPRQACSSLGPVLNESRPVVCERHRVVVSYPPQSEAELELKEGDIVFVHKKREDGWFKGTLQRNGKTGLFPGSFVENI

Row | effect of a mutation on the interaction | Variant
10 | decreasing interaction strength | MERASLIQKAKLAEQAERYEDMAAFMKGAVEKGEELSCEERNLLSVAYENVVGGQEAAWRVLSSIEQKSNEEGSEEKGPEVREYREKVETELQGVCDTVLGLLDSHLIKEAGDAESRVFYLKMKGDYYRYLAEVATGDDKKRIIDSARSAYQEAMDISKKEMPPTNPIRLGLALNFSDFHYEIANSPEEAISLAKTTFDEAMADLHTLSEDSYKDSTLIMQLLRDNLTLWTADNAGEEGGEAPQEPQS [K49E;R56E;V178D]

Variants of: B1
Details: with braf_human BRAF

Row | effect of a mutation on the interaction | Variant
11 | decreasing interaction strength | MERASLIQKAKLAEQAERYEDMAAFMKGAVEKGEELSCEERNLLSVAYENVVGGQEAAWRVLSSIEQKSNEEGSEEKGPEVREYREKVETELQGVCDTVLGLLDSHLIKEAGDAESRVFYLKMKGDYYRYLAEVATGDDKKRIIDSARSAYQEAMDISKKEMPPTNPIRLGLALNFSDFHYEIANSPEEAISLAKTTFDEAMADLHTLSEDSYKDSTLIMQLLRDNLTLWTADNAGEEGGEAPQEPQS [K49E;R56E;V178D]

Variants of: B1
Details: with FAM110B

Row | effect of a mutation on the interaction | Variant
12 | decreasing interaction strength | MERASLIQKAKLAEQAERYEDMAAFMKGAVEKGEELSCEERNLLSVAYENVVGGQEAAWRVLSSIEQKSNEEGSEEKGPEVREYREKVETELQGVCDTVLGLLDSHLIKEAGDAESRVFYLKMKGDYYRYLAEVATGDDKKRIIDSARSAYQEAMDISKKEMPPTNPIRLGLALNFSDFHYEIANSPEEAISLAKTTFDEAMADLHTLSEDSYKDSTLIMQLLRDNLTLWTADNAGEEGGEAPQEPQS [K49E;R56E;V178D]

Variants of: B1
Details: with iscu_human ISCU

Row | effect of a mutation on the interaction | Variant
13 | decreasing interaction strength | MERASLIQKAKLAEQAERYEDMAAFMKGAVEKGEELSCEERNLLSVAYENVVGGQEAAWRVLSSIEQKSNEEGSEEKGPEVREYREKVETELQGVCDTVLGLLDSHLIKEAGDAESRVFYLKMKGDYYRYLAEVATGDDKKRIIDSARSAYQEAMDISKKEMPPTNPIRLGLALNFSDFHYEIANSPEEAISLAKTTFDEAMADLHTLSEDSYKDSTLIMQLLRDNLTLWTADNAGEEGGEAPQEPQS [K49E;R56E;V178D]

Variants of: B1
Details: with foxo4_human FOXO4, P98177

Row | effect of a mutation on the interaction | Variant
14 | decreasing interaction strength | MERASLIQKAKLAEQAERYEDMAAFMKGAVEKGEELSCEERNLLSVAYENVVGGQEAAWRVLSSIEQKSNEEGSEEKGPEVREYREKVETELQGVCDTVLGLLDSHLIKEAGDAESRVFYLKMKGDYYRYLAEVATGDDKKRIIDSARSAYQEAMDISKKEMPPTNPIRLGLALNFSDFHYEIANSPEEAISLAKTTFDEAMADLHTLSEDSYKDSTLIMQLLRDNLTLWTADNAGEEGGEAPQEPQS [K49E;R56E;V178D]

Variants of: B1
Details: with klc4_human KLC4, Q9NSK0
Sequence of klc4_human KLC4, Q9NSK0 (Q9NSK0 whole entry): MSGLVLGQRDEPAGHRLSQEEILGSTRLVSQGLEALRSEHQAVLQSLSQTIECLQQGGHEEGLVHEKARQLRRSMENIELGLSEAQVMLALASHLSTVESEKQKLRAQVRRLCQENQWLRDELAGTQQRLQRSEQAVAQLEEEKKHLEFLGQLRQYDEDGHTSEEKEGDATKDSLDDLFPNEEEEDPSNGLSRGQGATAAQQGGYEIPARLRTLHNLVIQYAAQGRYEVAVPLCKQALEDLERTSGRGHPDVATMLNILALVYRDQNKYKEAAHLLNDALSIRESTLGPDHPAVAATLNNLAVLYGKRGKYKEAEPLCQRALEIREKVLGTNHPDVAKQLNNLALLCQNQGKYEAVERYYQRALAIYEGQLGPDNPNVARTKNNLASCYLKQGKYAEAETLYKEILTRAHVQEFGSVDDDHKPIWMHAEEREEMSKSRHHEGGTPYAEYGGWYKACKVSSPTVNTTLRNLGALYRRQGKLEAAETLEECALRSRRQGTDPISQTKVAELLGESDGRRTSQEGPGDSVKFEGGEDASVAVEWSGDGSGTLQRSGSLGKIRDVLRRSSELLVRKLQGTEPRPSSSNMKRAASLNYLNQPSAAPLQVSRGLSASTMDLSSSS

Row | effect of a mutation on the interaction | Variant
15 | decreasing interaction strength | MERASLIQKAKLAEQAERYEDMAAFMKGAVEKGEELSCEERNLLSVAYENVVGGQEAAWRVLSSIEQKSNEEGSEEKGPEVREYREKVETELQGVCDTVLGLLDSHLIKEAGDAESRVFYLKMKGDYYRYLAEVATGDDKKRIIDSARSAYQEAMDISKKEMPPTNPIRLGLALNFSDFHYEIANSPEEAISLAKTTFDEAMADLHTLSEDSYKDSTLIMQLLRDNLTLWTADNAGEEGGEAPQEPQS [K49E;R56E;V178D]

Reference: IntAct's records for PubMed 36931259
